Test results from patent US9566335 (GOVERNING COUNCIL OF THE UNIVERSITY OF TORONTO, dated 2017).
Where a chain is given by its changes, count along the chain named. No end group written: not given here. *: point of attachment. Biotin = O=C1N[C@H]2[C@H](CS[C@H]2CCCCC(=O)*)N1

B1: biotinylated peptide X-SDGMFTAGSLIGK(biotin), X = L (peptide)
peptide: LSDGMFTAGSLIGK(Biotin)
notes: also called Leu peptide
B2: ClpS Variant 1 (Trp-binding ClpS variant), phage displayed (designed binder)
chain: KPPSMYKVILVNDDYTPAEFCIDVLQKFFSYDVERATQLCLAAHYQGKAICGVFTAEVAETKVAMVNKYARENEHAALCTLEKA
notes: tested as phage; also called ClpS variant W1; W1; not shown: N-terminal FLAG tag of the phage display construct; C-terminal phage coat protein p3 of the phage display construct
B3: Phage displayed wild-type E. coli ClpS (truncated wildtype ClpS polypeptide, FLAG-tagged, fused to phage coat protein p3) (other)
chain: B2 chain with A18M, C21V, C40M, A43V, A76P, A77L
notes: also called ClpS Wt; ClpS WT; not shown: N-terminal FLAG tag

Molecular target: B2
Assay: competitive phage ELISA, 10 uM free peptide against immobilised Wpep

Question: Does LSDGMFTAGSLI [non-biotinylated peptide XSDGMFTAGSLI, X = L] bind?
Answer: Result: binds

Question: Does FSDGMFTAGSLI [non-biotinylated peptide XSDGMFTAGSLI, X = F] bind?
Answer: Result: binds

Question: Does ISDGMFTAGSLI [non-biotinylated peptide XSDGMFTAGSLI, X = I] bind?
Answer: Result: binds

Question: Does YSDGMFTAGSLI [non-biotinylated peptide XSDGMFTAGSLI, X = Y] bind?
Answer: Result: binds

Question: Does GSDGMFTAGSLI [non-biotinylated peptide XSDGMFTAGSLI, X = G] bind?
Answer: Result: binds

What follows are binders tested against B3 (assay: phage ELISA).

Question: Does WSDGMFTAGSLIGK(Biotin) (also called Wpep; Trp peptide) [biotinylated peptide X-SDGMFTAGSLIGK(biotin), X = W] bind?
Answer: Result: binds

Question: Does B1 bind?
Answer: Result: binds

Molecular target: B1
Assay: phage ELISA

Question: Does B2 bind?
Answer: Result: no binding

What follows are binders tested against T1, streptavidin (UniProt P22629 37-163) (assay: phage ELISA, FIG. 6B).
T1 construct: also called SA
T1 sequence (P22629 37-163 limits assumed): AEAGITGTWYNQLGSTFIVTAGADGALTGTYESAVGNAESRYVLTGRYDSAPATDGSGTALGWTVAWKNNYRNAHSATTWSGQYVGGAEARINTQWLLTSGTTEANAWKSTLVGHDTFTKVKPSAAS

Question: Does B3 bind?
Answer: Result: no binding

The binders below were run against T2, bovine serum albumin (bovine, UniProt P02769 25-607) (assay: phage ELISA, FIG. 6B).
T2 construct: also called BSA
T2 sequence (P02769 25-607 limits assumed): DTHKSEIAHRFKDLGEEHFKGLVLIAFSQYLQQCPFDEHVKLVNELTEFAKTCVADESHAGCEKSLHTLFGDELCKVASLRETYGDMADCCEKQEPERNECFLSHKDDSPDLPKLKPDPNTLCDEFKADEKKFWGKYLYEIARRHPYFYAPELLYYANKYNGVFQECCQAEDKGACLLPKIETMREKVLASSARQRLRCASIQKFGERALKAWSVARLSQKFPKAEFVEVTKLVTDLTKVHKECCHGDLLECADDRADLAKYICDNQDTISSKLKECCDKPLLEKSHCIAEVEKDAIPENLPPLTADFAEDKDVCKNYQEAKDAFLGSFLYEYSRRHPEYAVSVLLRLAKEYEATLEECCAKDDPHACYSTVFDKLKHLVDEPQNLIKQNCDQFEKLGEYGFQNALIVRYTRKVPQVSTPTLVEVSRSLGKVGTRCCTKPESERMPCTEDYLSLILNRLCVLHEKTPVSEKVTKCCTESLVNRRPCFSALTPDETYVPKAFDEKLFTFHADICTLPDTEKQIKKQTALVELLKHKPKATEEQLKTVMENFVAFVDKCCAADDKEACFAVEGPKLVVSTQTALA

Question: Does B3 bind?
Answer: Result: no binding

Molecular target: B2
Assay: competitive phage ELISA: W1 phage equilibrated with free peptide, then on immobilised Wpep(biotin)

Question: What does the source list for WSDGMFTAGSLI (also called Wpep) [non-biotinylated peptide XSDGMFTAGSLI, X = W]?
Answer: IC50: ~1000 nM; binding remaining at 10 uM competitor (relative to no competitor): 11%

Molecular target: B2
Assay: competitive phage ELISA against immobilised Wpep

Question: Does ESDGMFTAGSLI [non-biotinylated peptide XSDGMFTAGSLI, X = E] bind?
Answer: Result: no binding (tested: 10 uM)

Question: Does ASDGMFTAGSLI [non-biotinylated peptide XSDGMFTAGSLI, X = A] bind?
Answer: Result: no binding (tested: 10 uM)

Question: Does SSDGMFTAGSLI [non-biotinylated peptide XSDGMFTAGSLI, X = S] bind?
Answer: Result: no binding (tested: 10 uM)

Question: Does MSDGMFTAGSLI [non-biotinylated peptide XSDGMFTAGSLI, X = M] bind?
Answer: Result: no binding (tested: 10 uM)

Question: Does NSDGMFTAGSLI [non-biotinylated peptide XSDGMFTAGSLI, X = N] bind?
Answer: Result: no binding (tested: 10 uM)

Question: Does PSDGMFTAGSLI [non-biotinylated peptide XSDGMFTAGSLI, X = P] bind?
Answer: Result: no binding (tested: 10 uM)

Question: Does TSDGMFTAGSLI [non-biotinylated peptide XSDGMFTAGSLI, X = T] bind?
Answer: Result: no binding (tested: 10 uM)

Question: Does VSDGMFTAGSLI [non-biotinylated peptide XSDGMFTAGSLI, X = V] bind?
Answer: Result: no binding (tested: 10 uM)

Question: Does DSDGMFTAGSLI [non-biotinylated peptide XSDGMFTAGSLI, X = D] bind?
Answer: Result: no binding (tested: 10 uM)

Question: Does RSDGMFTAGSLI [non-biotinylated peptide XSDGMFTAGSLI, X = R] bind?
Answer: Result: no binding (tested: 10 uM)

Question: Does CSDGMFTAGSLI [non-biotinylated peptide XSDGMFTAGSLI, X = C] bind?
Answer: Result: no binding (tested: 10 uM)

Question: Does QSDGMFTAGSLI [non-biotinylated peptide XSDGMFTAGSLI, X = Q] bind?
Answer: Result: no binding (tested: 10 uM)

Question: Does HSDGMFTAGSLI [non-biotinylated peptide XSDGMFTAGSLI, X = H] bind?
Answer: Result: no binding (tested: 10 uM)

Question: Does KSDGMFTAGSLI [non-biotinylated peptide XSDGMFTAGSLI, X = K] bind?
Answer: Result: no binding (tested: 10 uM)
